These results are taken from patent US8703915B2, “Mutant proteins and methods for producing them” (Heptares Therapeutics Limited, priority 2009, dated 2014).

Series [1] concerns CRF1. The series can be described thus: Thermostability of CRF1 bound to antagonist CP-376395, purified in DDM. Format: physicochemical, human. Particulars: antagonist-bound state (CP-376395), purified in DDM. The procedure:
(§1) In order to stabilise CRF1 in the antagonist conformation, a systematic alanine-scan was performed to identify mutations that stabilise receptors bound to the antagonist ligand CP-376395. Mutating I2.58 to alanine (I163A) confers significant stabilisation in CRF1, increasing the thermal stability by 3.9 (±0.5)° C. (FIG. 15).
(§2) CRF1 receptors were transiently expressed in HEK293T cells on 10 cm plates using GeneJuice transfection reagent used according to manufacturers guidelines.
(§3) Cells expressing CRF1 were harvested in PBS approximately 40 hours post-transfection and re-suspended in 950 μl Re-suspension buffer (50 mM Tris-HCl, 150 mM NaCl, 2× Complete EDTA-free Protease inhibitor cocktail (Roche), pH7.5). Cells were incubated with 120 nM CP-376395 and 30 nM [^3H]-CP-376395 at 37° C. for 2 hours before transferring to ice for 5 minutes. The receptors were solubilised by the addition of 1% DDM and incubated at 4° C. for 1 hour with gentle agitation. Insoluble material was removed by centrifugation at 16000×g for 10 minutes at 4° C. The solubilised receptors were partially purified with Ni-NTA agarose (Qiagen). Ni-NTA resin was equilibrated in Equilibration buffer (50 mM Tris-HCl, 150 mM NaCl, 2× Complete EDTA-free Protease inhibitor cocktail (Roche), 0.025% DDM, pH7.5) and 400 μl of a 50:50 resin slurry was added to each sample. Resin slurries were incubated at 4° C. for 1 hour 30 minutes with gentle agitation to bind receptors. Resin slurries were then transferred to a batch column filter plate (Chromabond) and centrifuged at 1000×g for 1 minute, discarding the flow-through. Resin was washed twice with 1 ml of Wash buffer (50 mM Tris-HCl, 150 mM NaCl, 2× Complete EDTA-free Protease inhibitor cocktail (Roche), 0.025% DDM, 20 mM Imidazole, pH7.5) and then eluted in 1 ml of Elution buffer (50 mM Tris-HCl, 150 mM NaCl, 2× Complete EDTA-free Protease inhibitor cocktail (Roche), 0.025% DDM, 100 mM histidine, 30 nM [^3H]-CP-376395, 120 nM CP-376395, pH7.5) by resuspension at 4° C. for 30 minutes. Eluted samples were used directly in the thermostability assay. […]

Series [2] has as its target T1, CRF1 (Homo sapiens, UniProt P34998, I163A).
T1 construct: made in house; host or cells: HEK293T cells, transient
T1 sequence (P34998 24-415 I163A): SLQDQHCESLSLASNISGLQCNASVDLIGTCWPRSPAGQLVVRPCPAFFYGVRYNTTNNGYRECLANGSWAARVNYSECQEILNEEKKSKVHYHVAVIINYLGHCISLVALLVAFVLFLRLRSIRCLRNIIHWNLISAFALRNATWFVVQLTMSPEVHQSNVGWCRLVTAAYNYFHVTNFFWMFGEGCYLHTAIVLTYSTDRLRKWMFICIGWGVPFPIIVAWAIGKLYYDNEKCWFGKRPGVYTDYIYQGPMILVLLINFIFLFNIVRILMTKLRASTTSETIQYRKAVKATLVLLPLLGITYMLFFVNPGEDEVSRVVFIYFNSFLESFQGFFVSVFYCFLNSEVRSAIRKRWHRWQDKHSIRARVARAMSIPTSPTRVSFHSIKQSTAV
The description is as above. Particulars: antagonist CP-376395 bound, versus CRF1 WT. It is filed as physicochemical. As for the experimental part: as §1, §2, §3

The target of series [3] is T2, OX2 receptor (Homo sapiens, UniProt O43614, F28L/I308V/Y91L).
T2 construct: made in house; host or cells: transiently transfected mammalian cells (HEK293T inferred from 'as described for M4')
T2 sequence (O43614 1-444 F28L/Y91L/I308V): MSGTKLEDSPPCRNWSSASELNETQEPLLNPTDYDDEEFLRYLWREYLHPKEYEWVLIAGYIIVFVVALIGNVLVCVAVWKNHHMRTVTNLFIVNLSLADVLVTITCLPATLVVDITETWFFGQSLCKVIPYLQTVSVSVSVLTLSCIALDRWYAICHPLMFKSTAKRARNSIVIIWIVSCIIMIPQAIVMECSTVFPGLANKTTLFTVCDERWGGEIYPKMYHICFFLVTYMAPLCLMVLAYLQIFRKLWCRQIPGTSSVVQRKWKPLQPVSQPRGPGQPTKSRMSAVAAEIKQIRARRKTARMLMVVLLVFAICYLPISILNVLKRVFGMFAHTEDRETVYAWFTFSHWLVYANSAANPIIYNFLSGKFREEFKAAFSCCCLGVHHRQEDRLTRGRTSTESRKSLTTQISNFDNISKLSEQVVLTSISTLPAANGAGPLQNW
Nature of the series: Thermostability of OX2 receptor bound to antagonist EMPA. Format: physicochemical. Particulars: antagonist EMPA bound, compared to WT OX2. The procedure:
(§4) Transiently transfected mammalian cells expressing M4 were harvested about 40 hours post transfection and the receptors were solubilised in 50 mM Tris pH 7.5/250 mM NaCl/1% DDM/EDTA free protease inhibitor mix for 1 hour rotating at 4° C. The solubilised lysate was then cleared by centrifugation at 13000 rpm for 15 minutes at 4° C. The solubilised receptors were then purified on Ni-NTA beads and eluted with 100 mM histidine. The eluted receptor was used in radioligand binding assay. Thermostability of M4 was measured using 25 μL of purified receptor mixed with 95 μL of 12 nM [^3H]-NMS (final concentration of 10 nM). The sample was incubated for 60 min at 4° C., then 30 min at the specified temperature and then 30 min at 4° C. Receptor bound and free radioligand were separated using a 96-well plate gel filtration assay.
(§5) A tandem alanine and leucine scanning mutagenesis strategy was used to identify mutations that enhanced the thermostability of OX2 bound to the small-molecule antagonist EMPA.
(§6) Thermostability assays were preformed on partially purified receptors as described for M4, with the following amendments. Cell lysates were solubilised in 50 mM Tris pH7.4, 150 mM NaCl, 1% DDM supplemented with 1× complete EDTA free protease inhibitor cocktail (Roche). Radioligand binding reactions were set up using 1/10 volume eluted receptor mixed with 20 nM ^3H-EMPA (final concentration) per temperature point.

The subject of series [4] is OX2 receptor. Described as above. It is filed as physicochemical, human. Particulars: bound to antagonist EMPA. As for the experimental part: as §4, §5, §6

B1: CRF1 I163A: human CRF1 mutant, I2.58 to alanine (I163A) (protein, UniProt P34998 24-415, looked up, variant I163A)
Corticotropin-releasing …: SLQDQHCESLSLASNISGLQCNASVDLIGTCWPRSPAGQLVVRPCPAFFYGVRYNTTNNGYRECLANGSWAARVNYSECQEILNEEKKSKVHYHVAVIINYLGHCISLVALLVAFVLFLRLRSIRCLRNIIHWNLISAFALRNATWFVVQLTMSPEVHQSNVGWCRLVTAAYNYFHVTNFFWMFGEGCYLHTAIVLTYSTDRLRKWMFICIGWGVPFPIIVAWAIGKLYYDNEKCWFGKRPGVYTDYIYQGPMILVLLINFIFLFNIVRILMTKLRASTTSETIQYRKAVKATLVLLPLLGITYMLFFVNPGEDEVSRVVFIYFNSFLESFQGFFVSVFYCFLNSEVRSAIRKRWHRWQDKHSIRARVARAMSIPTSPTRVSFHSIKQSTAV
Take B1: in the series on CRF1 [1], the Tm came to 30.7 °C. Further, the “increase of thermal stability” value with CRF1 [2] is 3.9 (±0.5) ° C.

B2: OX2Y91L (protein, UniProt O43614 1-444, looked up, variant Y91L)
Orexin receptor type 2: MSGTKLEDSPPCRNWSSASELNETQEPFLNPTDYDDEEFLRYLWREYLHPKEYEWVLIAGYIIVFVVALIGNVLVCVAVWKNHHMRTVTNLFIVNLSLADVLVTITCLPATLVVDITETWFFGQSLCKVIPYLQTVSVSVSVLTLSCIALDRWYAICHPLMFKSTAKRARNSIVIIWIVSCIIMIPQAIVMECSTVFPGLANKTTLFTVCDERWGGEIYPKMYHICFFLVTYMAPLCLMVLAYLQIFRKLWCRQIPGTSSVVQRKWKPLQPVSQPRGPGQPTKSRMSAVAAEIKQIRARRKTARMLMIVLLVFAICYLPISILNVLKRVFGMFAHTEDRETVYAWFTFSHWLVYANSAANPIIYNFLSGKFREEFKAAFSCCCLGVHHRQEDRLTRGRTSTESRKSLTTQISNFDNISKLSEQVVLTSISTLPAANGAGPLQNW
For the molecule B2, the “increase of Tm” value with OX2 receptor [3] worked out at 1 °C. For the same molecule, the Tm with OX2 receptor [4] was determined as 29.69 °C.
